Experimental findings from PMC7671035 (mAbs, 2020) are described below.

For test [1], the target named is human CXCL1 (Homo sapiens, UniProt P09341).
Test [2] addresses mouse CXCL1 (Mus musculus, UniProt P12850). The test can be described thus: SPR. In general terms: Surface plasmon resonance follows binding to a sensor surface in real time, without labels.
For test [3], the target named is rat CXCL3 (Rattus norvegicus, UniProt Q10746). The test can be described thus: SPR.
Test [4] has as its target mouse CXCL3 (Mus musculus, UniProt Q6W5C0). Nature of the test: SPR.
Test [5] deals with rat CXCL1 (Rattus norvegicus, UniProt P14095). The test can be described thus: SPR.
Sequence of rat CXCL1 (P14095 25-96): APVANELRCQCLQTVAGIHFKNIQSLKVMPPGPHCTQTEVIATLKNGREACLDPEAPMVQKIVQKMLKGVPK
For test [6], the target named is rat CXCL2 (Rattus norvegicus, UniProt P30348). Nature of the test: SPR.
Sequence of rat CXCL2 (P30348 32-100): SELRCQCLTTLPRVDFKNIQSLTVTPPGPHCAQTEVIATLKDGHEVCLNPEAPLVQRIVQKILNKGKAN
For test [7], the target named is mouse CXCL2 (Mus musculus, UniProt P10889). Nature of the test: SPR.
Sequence of mouse CXCL2 (P10889 28-100): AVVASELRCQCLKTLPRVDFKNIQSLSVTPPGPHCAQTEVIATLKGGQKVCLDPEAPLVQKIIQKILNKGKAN
The target in test [8] is human CXCL13 (Homo sapiens (Human)., UniProt O43927). Nature of the test: ELISA. (An ELISA detects its analyte on a solid surface through an enzyme-linked reagent.)
Sequence of human CXCL13 (O43927 23-109): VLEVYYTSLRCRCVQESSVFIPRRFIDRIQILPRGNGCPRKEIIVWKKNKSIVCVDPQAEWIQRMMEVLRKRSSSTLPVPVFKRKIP
In test [9] the target is human CXCL14 (Homo sapiens, UniProt O95715). The test can be described thus: ELISA.
Sequence of human CXCL14 (O95715 35-111): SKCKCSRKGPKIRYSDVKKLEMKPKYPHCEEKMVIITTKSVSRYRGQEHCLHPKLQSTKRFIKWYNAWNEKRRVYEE
Test [10] deals with human CXCL12 (Homo sapiens, UniProt P48061). Nature of the test: ELISA.
Sequence of human CXCL12 (P48061 22-93): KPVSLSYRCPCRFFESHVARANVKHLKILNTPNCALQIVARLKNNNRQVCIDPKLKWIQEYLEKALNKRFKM
Test [11] deals with human CXCL4 (Homo sapiens (Human)., UniProt P02776). The test can be described thus: ELISA.
Sequence of human CXCL4 (P02776 32-101): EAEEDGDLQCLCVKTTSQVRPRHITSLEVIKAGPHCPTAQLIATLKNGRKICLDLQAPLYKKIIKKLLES
Test [12] deals with human CXCL10 (Homo sapiens (Human)., UniProt P02778). Nature of the test: ELISA.
Sequence of human CXCL10 (P02778 22-98): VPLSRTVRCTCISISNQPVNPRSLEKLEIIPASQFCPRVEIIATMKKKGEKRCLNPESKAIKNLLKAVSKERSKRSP
Test [13] addresses human CXCL17 (Homo sapiens, UniProt Q6UXB2). The test can be described thus: ELISA.
In test [14] the target is human CXCL16 (Homo sapiens, UniProt Q9H2A7). The test can be described thus: ELISA.
Sequence of human CXCL16 (Q9H2A7 30-254): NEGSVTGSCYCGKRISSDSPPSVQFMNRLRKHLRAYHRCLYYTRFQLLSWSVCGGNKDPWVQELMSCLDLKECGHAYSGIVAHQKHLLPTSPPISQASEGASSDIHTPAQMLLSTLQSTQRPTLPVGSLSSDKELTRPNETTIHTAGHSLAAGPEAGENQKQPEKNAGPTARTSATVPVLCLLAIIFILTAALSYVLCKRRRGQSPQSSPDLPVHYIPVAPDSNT

Sequence of human CXCL17 (Q6UXB2 22-119): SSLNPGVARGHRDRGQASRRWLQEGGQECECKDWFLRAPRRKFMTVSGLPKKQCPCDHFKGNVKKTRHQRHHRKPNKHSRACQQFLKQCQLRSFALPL
Sequence of mouse CXCL1 (P12850 25-96): as the sequence (P14095 25-96) above, with V3I, V15M, F20L, M29L, P31S, M58L counted along it
Sequence of human CXCL1 (P09341 35-107): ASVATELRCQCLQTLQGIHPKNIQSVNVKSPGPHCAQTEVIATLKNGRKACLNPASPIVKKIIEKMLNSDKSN
Sequence of rat CXCL3 (Q10746 33-101): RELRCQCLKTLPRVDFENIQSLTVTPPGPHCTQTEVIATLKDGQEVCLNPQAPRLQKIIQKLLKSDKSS
Sequence of mouse CXCL3 (Q6W5C0 32-100): as the sequence (Q10746 33-101) above, with R1S, K9N, N18T, A52G, K57I, Q60K, L62I, D66G counted along it

B1: 1581 (antibody, V domains shown)
VH: QVHVKQSGAELVKPGASVRLSCTASGYTFTSYWMHWVKQRPGQGLEWIGNINPNSGSANYNEKFKSKATLTVDTSSSTAYMQLSSLTSEDSAVYYCTREGPYSYYPVRVYYGLDYWGQGTSVTVSS
VL: DIVLTQSPATLSVTPGDRVSLSCRASQSISNNLHWYQQKSHESPRLLIKYTSQSVSGIPSRFSASGSGTDFTLSINSVETEDFGMYFCQQSNSWPLTFGAGTKLELK
In the case of B1, the binding result in test [1] is recorded as “binds”.

B2: LY3041658 (antibody, V domains shown)
VH: QVQLVQSGAEVKKPGASVKVSCKASGYEFTSYWIHWVRQAPGQGLEWMGNISPNSGSANYNEKFKSRVTMTRDTSTSTVYMELSSLRSEDTAVYYCAREGPYSYYPSREYYGSDLWGQGTLVTVSS
VL: EIVLTQSPATLSLSPGERATLSCRASQSISNNLHWYQQKPGQAPRLLIYYTSRSVSGIPARFSGSGSGTDFTLTISSLEPEDFAVYYCGQNNEWPEVFGGGTKVEIK
Take B2: the Kd in [2], in test [3], in [4], in [5], in test [6] and in [7] was roughly 0.2 nM in each case. Also, the binding result in test [8], in test [9], in test [10], in test [11], in test [12] and in test [13] was “no binding (tested: 20 µg/mL)” throughout. For the same molecule, the binding result in test [14] is reported as “no binding (tested: 20 µg/mL)”.
